Experimental data published in CN117677637A (PETEMEDI LTD, dated 2024).

T1: 犬CD20 (canine CD20, B淋巴细胞抗原CD20, full length, wild type) (canine (dog), UniProt Q3C2E2 1-297)
T1 construct: Stably expressed from full-length cDNA on MDCK II (or HEK293) cells for flow cytometry and ADCC; naturally expressed on CLBL-1 canine lymphoma cells in the CDC assay; also called cCD20; MS4A1
T1 chain: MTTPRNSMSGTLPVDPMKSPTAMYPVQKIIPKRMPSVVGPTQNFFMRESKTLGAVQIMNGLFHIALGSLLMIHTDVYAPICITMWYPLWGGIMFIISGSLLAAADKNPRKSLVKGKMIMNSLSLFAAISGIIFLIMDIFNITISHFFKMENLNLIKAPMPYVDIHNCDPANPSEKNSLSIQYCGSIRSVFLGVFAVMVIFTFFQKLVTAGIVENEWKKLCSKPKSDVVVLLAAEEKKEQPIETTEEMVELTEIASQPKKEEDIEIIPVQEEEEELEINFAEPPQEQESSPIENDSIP

B1: PMX001 (antibody, V domains shown)
VH: EVQLVESGGDLVKPGGSLRLSCVASGFTFSSYHMSWVRQAPGKGLQWVAYINSGGSSTTYADAVKGRFTISRDNAKKTLYLQMNSLRAEDTAVYYCSTFDYWGQGTLVTVSS
VL: SYVLTQLPSRNVTLKQPAHITCGGDNIGSKSVHWYQQKLGQAPVLIIYYDTRRPTGIPERFSGANSGNTATLTISGALAEDEADYYCQVWDSSGNVFGGGTHLTVL
notes: Fully canine mAb; also called PMX001 mAb
B2: PMX004 (antibody, V domains shown)
VH: EVQLVESGGELVKPGGSLRVSCVASGITFSRYHMSWVRQAPGKGLQWVAFINTDRSSPKYADSVKGRFTISRDNAKNTLYLQMNSLRAEDTAIYYCTSFDYWGQGTLVTVSS
VL: SYVLTQLPSKNVTLKQPAHITCGGDNIGSKSVHWYQQKLGQAPVLIIYYDSSRPTGIPERFSGANSGNTATLTISGALAEDEADYYCQVWDSSANVFGGGTHLTVL
notes: Fully canine mAb; also called PMX004 mAb
B3: PMX005 (antibody, V domains shown)
VH: EVQLVESGGDLVKPGGSLRLSCVASGFTFSRYHMSWVRQAPGKGLQWVAYINSGGSDSDYADAVKGRFTISRDNAKNTLYLQMNSLRAEDTAVYYCTSLDYWGQGTLVTVSS
VL: SYVLTQLPSKNVTLKQPAHITCGGDNIGSKSVHWYQQKLGQAPVLIIYYDSSRPTGIPERFSGANSGNTATLTISGALAEDEADYYCQVWDRSGNVFGGGTHLTVL
notes: Fully canine mAb; also called PMX005 mAb
B4: PMX066 (antibody, V domains shown)
VH: AVQLVESGGDLVKPGGSLRLSCVASGITFSRYHMSWVRQAPGKGLQWVAYINSGGSATSYTDAVKGRFSISRDNGKNTLYLQMNSLRVEDSAVYYCTTLDLWGQGTLVTVSS
VL: SYVLTQLPSKNVTLKQPAHITCGGDNIGSKSVHWYQQKLGQAPVLIIYYDSRRPTGIPERFSGANSGNTATLTINGALAEDEADYYCQMWDSSANVFGGGTHLTVL
notes: Canine mAb
B5: PMX071 (antibody, V domains shown)
VH: EVHLVESGGDLVKPGGSLRLSCVASGITFNRYYMNWVRQTPGKGLQWVAYIDSGGSPTTYADAVKGRFTISRDNAKNTLYLQMNSLRAEDTAVYYCTSFDYWGQGTLVTVSS
VL: SYVLTQLPSKNVTLKQPAHITCGGDNIGSKSVHWYQQKLGQAPILIIYYDTSRPTGIPERFSGANSGNTATLTISGALAEDEADYYCQVWDSSANVFGGGTHLTVL
B6: PMX074 (antibody, V domains shown)
VH: EVQLVESGGDLVKPGGSLRLSCVASGFTFSRYYMTWVRQAPGKGLQWVAYINSDRRSTTYADAVKGRFTISRDNAKNTLYLQMNSLRAEDTAVYYCTTLEYWGQGTLVTVSS
VL: SYVLTQLPSKNVTLKQPAHITCGGDNIGSKSVHWYQQKLGQAPVLIIYYDSRRPTGIPERFSGANSGNTATLTINGALAEDEADYYCQVWDSSANVFGGGTHLTVL
B7: PMX081 (antibody, V domains shown)
VH: EVQLVQSGGDLVKPGGSLRLSCVASGYTFTRYHMSWVRQAPGKGLQWVAFINSDGTGITYGDAVKGRFTISRDNAKNTLYLQMNSLRAEDTAIYYCTTFDSWGQGTLVTVSS
VL: SYVLTQLPSKNVTLKQPAHITCGGDNIGSKSVHWYQQKLGQAPILIIYYDSRRPTGIPERFSGANSGNTATLTISGALAEDEADYYCQVWDSSGNVFGGGTHLTVL
B8: PMX076 (antibody, V domains shown)
VH: EVQLVESGGDLVKPGGSLRLSCVASGITFSRYYMNWVRQAPGKGLQWVAYIDSGGSPTTYADAVKGRFTISRDNAKKALYLQMNSLRAEDTAVYYCTSFDYWGQGTLVTVSS
VL: SYVLTQLPSKNVTLKQPAHITCGGDNIGSKSVHWYQQKLGQAPVLIIYYDSSRPTGIPERFSGANSGNTATLTISGALAEDEADYFCQVWDSSANVFGGGTHLTVL
B9: PMX069 (antibody, V domains shown)
VH: EMQLVESGGALVKPGGSLRLSCVASGFTFRRYHMSWVRQAPGQGLQWVAYIDSDGSPTSYGDSVKGRFTISRDNAKNTLFLQMNSLRVDDTAVYYCTTLDYWGRGTLVTVSS
VL: SYVLTQVPSKNVTLKQPAHITCGGDNIGGKSVHWYQQKLGQAPLLIIYYDTRRPTGIPERFSGANSGNTATLTISRALAEDEADYYCQVWDSSGNVFGGGTHLTVI
notes: also called PMX0069
B10: PMX080 (antibody, V domains shown)
VH: EVQLVESGGDLVKPGGSLRLSCVASGLTFSRYYMNWVRQAPGKGLQWVAYIDSGGSPTNYADAVKGRFTISRDNAKNTLYLQMNSLRAEDTAVYYCSSFDYWGQGTLVTVSS
VL: SYVVTQLPSNTVTLKQPAHITCGGDNIGSKSVHWYQQKLGQAPVLIIYYDSRRPTGIPERFSGANSGNTATLTISGALAEDEADYYCQVWDSSANVFGGGTHLTVL
B11: PMX075 (antibody, V domains shown)
VH: EVQLVESGGDLVKPGGSLRLSCVASGITFSRYHMSWVRQAPGKGLQWVAFINTGRSSTNYADAVAGRFTISRDNAKNTLYLQMNGLTVEDTAVYYCSTLDYWGQGTLVTVSS
VL: SYVLTQLPSKSVTLKQPAHITCGGDNIGSKSVHWYQQKLGQAPILIIYYDNNRPTGIPERFSGANSGNTATLTISGALAEDEADYYCHVWDSSVNVFGGGTHLTVL
B12: PMX078 (antibody, V domains shown)
VH: EVQLVESGGDLVKPGGSLRLSCVASGLTFSRYHMSWIRQAPGKGLQWVAYISSGGSSTNYAGSVKGRFTVSRDNAKNTLYLQMNSLRAEDTAVYYCTSLDYWGQGTLVTVSS
VL: SYVLTQLPSKNVTLKQPAHITCGGDNIGSKSVHWYQQKLGQAPVLIIYYDSRRPTGIPERFSGANSGNTATLTISGALAEDEADYYCQVWDSSDNVFGGGTHLTVL
B13: PMX077 (antibody, V domains shown)
VH: EVQLVESGGDLVKPGGSLRLSCVASGITFSRYYMNWVRQAPGKGLQWVAYINSGGSPTTYADAVKGRFTISRDNAKNTLYLQMNSLRAEDTAVYYCTSFDYWGQGTLVTVSS
VL: SYVLTQLPSKNVTLKQPAHITCGGDNIGSKSVHWYQQKLGQAPILIIYYDTSRPTGIPERFSGANSGNTATLTISGALAEDEADYYCQVWDSSANVFGGGTHLTVL
B14: PMX072 (antibody, V domains shown)
VH: EVQLVESGGDLVKPGGSLRLSCVASGFTFSRYHMSWVRQAPGKGLQWVAFINTGRSSTNYADAVAGRFTISRDNAKNTLYLQMNSLRAEDTAVYYCSTLDYWGQGTLVTVSS
VL: SYVLTQLPSKNVTLKQPAHITCGGDNIGSKSVHWYQQKLGQAPVLIIYYDSSRPTGIPERFSGANSGNTATLTISGALAEDEADYYCQVWDSSANVFGGGTHLTVL
B15: PMX067 (antibody, V domains shown)
VH: EIQLVESGGDLVKPGGSLRLSCVASGFTFSRYHMSWVRQAPGKGLQWVAYINTGGSNTNYADAVKGRFTISRDNAKNTLYLQMNSLRAEDTAVYYCTTLDSWGQGTLVTVSS
VL: SYVLTQLPFKNVTLKQPAHITCGGDNIGSKSVHWYQQKLGQAPVLIIYYDSRRPTGIPERFSGANSGNTATLTISGALAEDEADYYCQVWDSSVNVFGGGTHLTVL
notes: also called PMX0067
B16: PMX079 (antibody, V domains shown)
VH: EVQLVESGGDLVKPGGSLRLSCVASGLTFSRYHMSWVRQAPGKGLQWVAFINSGRSDTTYADAVKGRFTISRDNAKNTLYLQMNSLRAEDTAVYYCTTFDYWGQGTLVTVSS
VL: SYVLTQLPSKNVTLKQPAHITCGGDNIGSKSVHWYQQKLGQAPALIIYYDSSRPTGIPERFSGANSGNTATLTISGALAEDEADYYCQVWDSSANVFGGGTHLTVL
B17: PMX070 (antibody, V domains shown)
VH: EMQLVESGGDLVKPGGSLRLSCVASGFTFSRYHMSWVRQAPGKGLQWVAYINSGGSPTNYADAVKGRFTISRDNAKNTLYLQMNSLRAEDTAVYYCTTYDQWGQGTLVTVSS
VL: SYVLTQLPSKSVTLKQPAHITCGGDNIGSKSVHWYQQKLGQAPVLIIYYDSSRPTGIPERFSGANSGNTATLTISGALAEDEADYYCQVWDTSANVFGGGTHLTVL
B18: PMX073 (antibody, V domains shown)
VH: EVQLVESGGDLVKPGGSLRLSCVASGFTFSRYYMNWVRQAPGKGLQWVAFITSGGSSTSYGDAVKGRFTISRDNAKNTLYLQMNSLRAEDTAVYYCTSFDYWGQGTLVTVSS
VL: SYVLTQLPSKNVTLKQPAHITCGGDNIGSKSVHWYQQKLGQAPVLIIYYASSRPTGIPERFSGANSGNTATLTISGALAEDEADYYCQVWDSSANVFGGGTHLTVL
B19: PMX010 (antibody, V domains shown)
VH: EVQLVESGGDLVKPGGSLRLSCVASGITFSRYHMSWVRQAPGKGLQWVAYINSGGSSTSYPDAVKGRFTISRDNAKNTLYLQMDSLRAEDTALYYCTTFDYWGQGTLVTVSS
VL: SYVLTQLPSKSVTLKQPAHITCGGDNIGSKSVHWYQQKLGQAPVLIIYYDSRRPTGIPERFSGANSGNTATLTISGALAEDEADYYCQVWDSSANVFGGGTHLTVL
notes: PMX003 heavy chain; Constant regions not restated (PMX003: dog IGGB / dog IGLC5); also called PMX010 mAb; SVT

Biological target: T1, 犬CD20 (canine CD20, B淋巴细胞抗原CD20, full …)
Test: flow cytometry, 10 ug/ml antibody on MDCK II cells expressing canine CD20 (Fig 3A)

Binding result, binds:
B1, B2, B3

Biological target: T1, 犬CD20 (canine CD20, B淋巴细胞抗原CD20, full …)
Test: flow cytometry, 10 ug/ml antibody on MDCK II cells expressing canine CD20 (Fig 3C)

Binding result, binds:
B4, B5, B6, B7, B8, B9, B10, B11, B12, B13, B14, B15, B16, B17, B18

Biological target: T1, 犬CD20 (canine CD20, B淋巴细胞抗原CD20, full …)
Test: flow cytometry, 10 ug/ml antibody on MDCK II cells expressing canine CD20 (Fig 3B)

Binding result, binds:
B19
